In US20250027955A1, “ETHYLENE RECEPTORS AND BINDING DOMAINS WITH MODIFIED BINDING KINETICS FOR ETHYLENE” (Trustees of Dartmouth College, priority 2022, published 2025):
Positions count from the first letter of the chain named. Names and notes keep the numbering of the source. Like-named read-outs stand apart in the source and are kept apart here.

B1: ETR1^D25A: ETR1 with site-directed mutation of Asp25 to Ala (protein, UniProt P49333 1-738, looked up, variant D25A)
Ethylene receptor 1: MEVCNCIEPQWPADELLMKYQYISAFFIAIAYFSIPLELIYFVKKSAVFPYRWVLVQFGAFIVLCGATHLINLWTFTTHSRTVALVMTTAKVLTAVVSCATALMLVHIIPDLLSVKTRELFLKNKAAELDREMGLIRTQEETGRHVRMLTHEIRSTLDRHTILKTTLVELGRTLALEECALWMPTRTGLELQLSYTLRHQHPVEYTVPIQLPVINQVFGTSRAVKISPNSPVARLRPVSGKYMLGEVVAVRVPLLHLSNFQINDWPELSTKRYALMVLMLPSDSARQWHVHELELVEVVADQVAVALSHAAILEESMRARDLLMEQNVALDLARREAETAIRARNDFLAVMNHEMRTPMHAIIALSSLLQETELTPEQRLMVETILKSSNLLATLMNDVLDLSRLEDGSLQLELGTFNLHTLFREVLNLIKPIAVVKKLPITLNLAPDLPEFVVGDEKRLMQIILNIVGNAVKFSKQGSISVTALVTKSDTRAADFFVVPTGSHFYLRVKVKDSGAGINPQDIPKIFTKFAQTQSLATRSSGGSGLGLAISKRFVNLMEGNIWIESDGLGKGCTAIFDVKLGISERSNESKQSGIPKVPAIPRHSNFTGLKVLVMDENGVSRMVTKGLLVHLGCEVTTVSSNEECLRVVSHEHKVVFMDVCMPGVENYQIALRIHEKFTKQRHQRPLLVALSGNTDKSTKEKCMSFGLDGVLLKPVSLDNIRDVLSDLLEPRVLYEGM
B2: ETR1^K91A: ETR1 with Lys91 replaced by smaller nonpolar sidechain (Ala) (protein, UniProt P49333 1-738, looked up, variant K91A)
Ethylene receptor 1: B1 Ethylene receptor 1 with A25D, K91A
B3: ETR1^D25N,K91M: ETR1 combining Asp25Asn with K91M (protein, UniProt P49333 1-738, looked up, variant D25N K91M)
Ethylene receptor 1: B1 Ethylene receptor 1 with A25N, K91M
B4: ETR1^D25E: ETR1 with Asp25 replaced by Glu (protein, UniProt P49333 1-738, looked up, variant D25E)
Ethylene receptor 1: B1 Ethylene receptor 1 with A25E
B5: ETR1^D25N,K91R: ETR1 combining Asp25Asn with K91R (protein, UniProt P49333 1-738, looked up, variant D25N K91R)
Ethylene receptor 1: B1 Ethylene receptor 1 with A25N, K91R
B6: ETR1^D25Q: ETR1 with Asp25 replaced by Gln (protein, UniProt P49333 1-738, looked up, variant D25Q)
Ethylene receptor 1: B1 Ethylene receptor 1 with A25Q
B7: ETR1^K91M: ETR1 with Lys91 replaced by a nonpolar sidechain of similar size (Met) (protein, UniProt P49333 1-738, looked up, variant K91M)
Ethylene receptor 1: B1 Ethylene receptor 1 with A25D, K91M
B8: ETR1^K91R: ETR1 with basic Lys91 replaced by Arg (protein, UniProt P49333 1-738, looked up, variant K91R)
Ethylene receptor 1: B1 Ethylene receptor 1 with A25D, K91R
B9: ETR1^D25N,K91A: ETR1 combining Asp25Asn with K91A (protein, UniProt P49333 1-738, looked up, variant D25N K91A)
Ethylene receptor 1: B1 Ethylene receptor 1 with A25N, K91A

What was measured:
[1] = system: dark-grown Arabidopsis seedlings; experiment: Silver sensitivity assay: effect of silver on ethylene response of dark-grown seedlings; assay type: in vivo
Text: As an initial test for the feasibility of the first hypothesis, Applicant asked if ETR1^D25N could still bind a metal cofactor, and therefore potentially ethylene, in planta. For this purpose, Applicant examined the effects of silver (Ag) on ethylene sensitivity. Silver is thought to substitute for the copper cofactor and, although receptors containing silver can still bind ethylene, they no longer transmit the signal, resulting in ethylene insensitivity.

[2] = system: Arabidopsis seedlings, etr1 etr2 ein4 background; conditions: previously reported; cited from earlier work
[3] = system: Arabidopsis seedlings, etr1 etr2 ein4 background; experiment: Triple-response hypocotyl growth assay of dark-grown seedlings expressing ETR1 transgenes; assay type: in vivo; conditions: for rescue of growth of etr1 etr2 ein4 triple mutant in air: absence of ethylene, hypocotyl and adult shoot growth; for hypocotyl growth response to ethylene: dark-grown seedlings, 0 or 1 μL L^−1 ethylene
Experimental: Functionality of the ETR1 Asp25 mutants was tested by transgenic expression in the etr1 etr2 ein4 Arabidopsis background.
Applicant can thus exploit the triple mutant to assess the ability of the ETR1 transgenes to rescue growth in the absence of ethylene as well as their ability to mediate a response to ethylene. Such an analysis indicates whether the encoded receptors are able to assume the ‘on’ conformation that represses the ethylene response in air, as well as the ‘off’ conformation that occurs in response to ethylene binding.
(§1) All Arabidopsis lines were of the Columbia (Col-0) accession. The etr1-1 and etr1-6 etr2-3 ein4-4 mutant lines have been described. Analysis of the triple response of dark-grown Arabidopsis seedlings to ethylene was performed as described previously. Briefly, seedlings were grown at 22° C. on vertically oriented plates on half-strength Murashige and Skoog basal medium with Gamborg's vitamins (pH 5.75; Sigma), 0.8% (w/v) agar, and 5 μM aminoethoxyvinylglycine (AVG) to inhibit ethylene biosynthesis. The stratified seed was exposed to light for 8 hr and then moved to the dark in the presence or absence of ethylene, with analysis of the seedling growth being performed following 4 days total growth. For short-term kinetic analysis of dark-grown seedlings, time-lapse imaging and growth rate analysis of hypocotyls were carried out as described previously.

[4] = system: Arabidopsis seedlings, etr1 etr2 ein4 background; experiment: Short-term kinetic analysis of hypocotyl growth response to ethylene; assay type: in vivo; conditions: 10 μL/L ethylene for 2 hr
Experimental: Based on the differences Applicant uncovered for the long-term ethylene growth responses for the Asp25 mutants, Applicant also analyzed their short-term hypocotyl growth and molecular responses to ethylene. To this end, Applicant performed a short-term kinetic analysis, analyzing the initial hypocotyl growth inhibition in response to 10 μL/L ethylene and the growth recovery following the removal of ethylene after two hours of treatment (FIG. 6A).
as §1

[5] = system: OSR1, ERF1, EXP5 and EXPb1 expression; experiment: Ethylene-dependent gene expression by RT-qPCR; assay type: in vivo, Arabidopsis; conditions: 0 or 1 μL L^−1 ethylene for 2 hr
Experimental: To examine the short-term molecular response, Applicant characterized ethylene-dependent gene expression for the ETR1 Asp25 mutants (FIG. 6B). Expression of OSR1 and ERF1 is induced, whereas the expression of EXP5 and EXPb1 is repressed, in response to ethylene.
RNA isolation and RT-qPCR was performed with three biological replicates and two technical replicates of each.

[6] = Copper binding assay: purified ETR1 transmembrane domain titrated to BCA2-Cu(I) complex, absorbance at 562 nm; conditions: ETR1-TMD expressed and purified from E. coli; Cu(I) stabilized by BCA
Text: Cu(I) was stabilized by the copper chelator BCA, and then titrated with increasing ETR1 protein concentration.
Titration curves were corrected for nonspecific binding observed with chemically and thermally denatured receptor to maximize signal to background levels.

[7] = Saturable [14C]ethylene binding to yeast transgenically expressing ETR1; set-up: species or system Saccharomyces cerevisiae; conditions: 0.21 μL L^−1 [14C]ethylene; for saturable [14C]ethylene binding: with or without excess [12C]ethylene; for ethylene binding relative to ETR1^wt: % of wild-type binding
Text: Saturable ethylene binding of the ETR1 Asp25 mutants was examined by heterologous expression in yeast, with binding to [^14C]ethylene determined in the presence or absence of excess [^12C]ethylene (FIG. 2C). […] This included the ETR1^D25A mutant, consistent with previous observations, as well as for the ETR1^D25N and ETR1^D25Q mutants (FIG. 2C). Results from the ethylene binding assay are therefore consistent with the negative charge at D25 playing a significant role in mediating high-affinity ethylene binding.
[^14C]ethylene (specific activity=116 mCi/mmol) was obtained from ViTrax Radiochemicals (Placentia, CA) and trapped as the mercuric perchlorate complex as described. For ethylene binding assays in yeast, ETR1 was expressed in the yeast Saccharomyces cerevisiae (strain FY834) using the vector pYcDE-2 and a constitutive ADC1 promoter. The yeast growth media was supplemented with 40 μg L^−1 copper sulfate. Saturable ethylene binding to yeast was determined by analyzing binding of 0.3 g yeast per sample to 0.21 μL L^−1 [^14C]ethylene, in the presence or absence of excess [^12C]ethylene.

[8] = previously reported, cited from earlier work

| Molecule | rescue of growth of etr1 etr2 ein4 triple mutant in air [3] | hypocotyl growth response to ethylene [3] | short-term hypocotyl growth response to ethylene [4] | molecular response to ethylene (ethylene-dependent gene expression) [5] | copper binding [6] | saturable [14C]ethylene binding [7] | ethylene binding relative to ETR1^wt [7] | further results |
| --- | --- | --- | --- | --- | --- | --- | --- | --- |
| [Ag] [silver, reference compound] |  |  |  |  |  |  |  | effect of silver on ethylene response of etr1 etr2 ein4 triple mutant ([1]; etr1 etr2 ein4, 10 μL/L ethylene): still responsive to ethylene; effect of silver on ethylene response of wild-type seedlings ([1]; wild-type, 10 μL/L ethylene): blocked |
| B1 | rescued growth | conferred ethylene insensitivity | exhibit ethylene insensitivity | various levels of hyposensitivity | no copper binding | No saturable [^14C]ethylene binding was detected |  | ethylene sensitivity of plants (previous studies) [2]: confers dominant ethylene-insensitivity; ethylene binding (previous studies) [8]: eliminate ethylene binding; ethylene binding (previous studies) ([8]; listed as D25A): abolishes ethylene binding |
| B2 |  | a phenotype similar to that of the ETR1^K91M mutant or complete ethylene insensitivity |  |  |  |  | 1% | ethylene sensitivity of plants (previous studies) [2]: confer ethylene insensitivity; ethylene binding (previous studies) [8]: low level of ethylene binding ability |
| B3 |  | further reduction in the ability to rescue seedling growth and respond to ethylene |  |  |  |  |  |  |
| B4 | rescued growth | conferred ethylene insensitivity | exhibit ethylene insensitivity | various levels of hyposensitivity | minimal residual binding | substantially reduced |  |  |
| B5 |  | more insensitive to ethylene than the ETR1^K91R mutant |  |  |  |  |  |  |
| B6 | rescued growth | conferred ethylene insensitivity | exhibit ethylene insensitivity | various levels of hyposensitivity | minimal residual binding | No saturable [^14C]ethylene binding was detected |  |  |
| B7 | failed to rescue seedling growth efficiently | partial ethylene hyposensitivity |  |  |  |  | approximately 6% |  |
| B8 |  | conferred ethylene hyposensitivity |  |  |  |  | 63% |  |
| B9 |  | all ethylene insensitive |  |  |  |  |  |  |
